Results published in paper PMC10397321.

How the values were obtained:
[1] = biological target: photosystem I (PSI) monomer (Synechocystis sp. PCC 6803) (UniProt P29254); assay: cryo-EM structure; native PSI3-IsiA18 supercomplex co-purified from Synechocystis sp. PCC 6803 membranes in DDM; 30 mM Tricine-NaOH pH 8, 75 mM NaCl, 0.02% DDM; 1.5 mg chlorophyll/ml; vitrified on holey carbon grids; C3 symmetry expansion and multibody refinement
[2] = biological target: photosystem I (PSI) monomer (Synechocystis sp. PCC 6803) (UniProt P29254)

Chain of iron-stressed induced protein A (IsiA) (Q55274 whole entry): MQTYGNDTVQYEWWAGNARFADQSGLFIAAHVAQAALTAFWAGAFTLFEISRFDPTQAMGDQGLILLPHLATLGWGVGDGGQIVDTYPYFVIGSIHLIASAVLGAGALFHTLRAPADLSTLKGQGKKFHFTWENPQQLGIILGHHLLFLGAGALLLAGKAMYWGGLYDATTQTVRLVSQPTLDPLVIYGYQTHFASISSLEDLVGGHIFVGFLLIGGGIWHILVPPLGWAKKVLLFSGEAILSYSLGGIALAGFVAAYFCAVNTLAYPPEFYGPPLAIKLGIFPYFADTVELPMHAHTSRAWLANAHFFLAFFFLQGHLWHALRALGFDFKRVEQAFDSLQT
Chain of photosystem I (PSI) monomer (Synechocystis sp. PCC 6803) (P29254 whole entry, looked up): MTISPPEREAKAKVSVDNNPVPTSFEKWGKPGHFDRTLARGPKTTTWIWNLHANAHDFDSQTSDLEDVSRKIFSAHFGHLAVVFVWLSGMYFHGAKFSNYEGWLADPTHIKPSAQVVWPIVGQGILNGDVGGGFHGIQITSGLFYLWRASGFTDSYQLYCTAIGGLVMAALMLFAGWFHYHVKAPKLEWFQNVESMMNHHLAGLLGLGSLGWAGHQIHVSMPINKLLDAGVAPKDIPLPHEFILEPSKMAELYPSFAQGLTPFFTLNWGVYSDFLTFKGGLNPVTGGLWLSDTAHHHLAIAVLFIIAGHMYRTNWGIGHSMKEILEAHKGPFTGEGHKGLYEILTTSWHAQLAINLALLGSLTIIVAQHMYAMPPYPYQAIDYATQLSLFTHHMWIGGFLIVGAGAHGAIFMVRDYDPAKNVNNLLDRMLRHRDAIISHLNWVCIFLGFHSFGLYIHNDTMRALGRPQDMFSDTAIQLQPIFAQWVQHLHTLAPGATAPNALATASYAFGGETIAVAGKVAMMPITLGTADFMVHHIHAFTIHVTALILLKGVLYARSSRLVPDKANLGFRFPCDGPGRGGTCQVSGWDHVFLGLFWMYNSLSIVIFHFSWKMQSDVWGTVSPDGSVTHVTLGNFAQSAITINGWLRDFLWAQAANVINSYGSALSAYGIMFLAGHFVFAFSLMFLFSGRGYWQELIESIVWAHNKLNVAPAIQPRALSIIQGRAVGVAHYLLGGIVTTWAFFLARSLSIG

Substance | stoichiometry N [1] | single-molecule fluorescence lifetime: share of complexes with bi-exponential decay at all intensity levels (partially coupled, population II) [2] | single-molecule fluorescence lifetime: share of complexes with fast mono-exponential decay at all intensity levels (continuously coupled) [2] | single-molecule fluorescence lifetime: share of complexes with mono-exponential levels interleaved with bi-exponential levels (transiently coupled, population I) [2]
photosystem I (PSI) monomer (from UniProt P29254 1-751; P29255 1-731; P29256 24-165; Q55329 1-40; P72712 1-86) (complex) | 3 | – | – | –
iron-stressed induced protein A (IsiA) (from UniProt Q55274 1-342) (natural protein) | – | 4% | 60% | 36%
